Measured values: the nanobody polyreactivity screen of Harvey et al. (2022)

Assay: yeast display, Sf9 membrane polyspecificity reagent, FACS + sequencing; frameworks hold sequencing errors
In short: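 Nanobodies from a synthetic yeast display library (Saccharomyces cerevisiae BJ5465), induced 36–48 hours with galactose, were stained 1 hour at 4 °C with 10% biotinylated, detergent-solubilized Sf9 membrane reagent, enriched on streptavidin microbeads, then FACS-sorted. Anti-HA (expression) and streptavidin (reagent binding) fluorescence set low and high (top ~1%) gates. Polyreactivity labels come from the gate of origin. Genes were colony-PCR amplified, MiSeq 2 × 250 sequenced and filtered by CDR length.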

Row | Sequence | polyreactivity (PSR sort gate)
1 | QDQLVESGGGLVQAGGSLRLSCAASGRILRQYAMGWYRQAPGKERELVAAITSGDSTYYADSVKGRFTISRDNAKNTVYLQMNSLKTEDTAVYYCAAYSWLYEGYEYWGQGTQVTVSS | high polyreactivity
2 | QDQLVESGGGLVQAGGSLRLSCAASGRTFAKSAMGWYRQAPGKERELVASISRRGGSTYYADSVKGRFTISRDNAKNTVYLQMNSLKPEDTAVYYCNAVVTVNGYDSWGQGTQVTVSS | high polyreactivity
3 | QDQLVESGGGLVQAGGSLRLSCAASGRTFHRNAMGLYRQAPGKERELVAAITGTGGRTYYADSVKGRFTISRDNAKNTVYLQMNSLKPEDTEVYYCAARPWIKSGYWGQGTQVTVSW | high polyreactivity
4 | QDQLVESGGGLVQAGGSLRLSCAASGRTFPYKAMGWYRQAPGKERELVAAISYAGGRTYYADSVKGRFTISRDTAKNTVYLQMNSLKPEDTAVYYCYALGSGREDDYWGQGTQVTVSS | high polyreactivity
5 | QDQLVESGGGLVQAGGSLRLSCAASGRTFSTYAMGWYRQAHGKERELVARITSSGGSTYFADSVKGRFTISRDNAKNTVYLQMNSLKPEDTAVYYCAADAWSYWGYPYWWGYDYWGQGTQVTVSS | high polyreactivity
6 | QDQLVESGGGLVQAGGSLRLSCAASGRTFTTNDMGWYRQAPGKEWELVAGISWSGGSTFYADSVKGRFTISRDNAKNTVYLQMNSLKPEDTAVYSCATSARSYQSAYGHYTWYDYWGQGTQVTVSS | low polyreactivity
7 | QDQLVESGGGLVQAGGSLRLSCAASGRTFVFYAMGWYRQAPGKERELVAAITSGTSTNYADSVKGRFTISRDNAMNTVYLQMNSLKPEDTAVYYCAAYWTDLTYSIGFGYWGQGTQVTVSS | low polyreactivity
8 | QDQLVESGGGLVQAGGSLRLSCAASGRTFWRYAMGWYRQAPGKERELVAAITSGGGSTYYADSVKGRFTISRDTAKNTVYLQMNSLKPEDTAVSYCNRAGRGRSFKGDYWGQGTQVTVSS | high polyreactivity
9 | QDQLVESGGGLVQAGGSLRLSCAASGRTFWVYAKGWYRQAPGKERELVAGISWDDGSTYYADSVKGRFTISRDNAKNTVYLQMNSLKPEDTAVYYCAADAYFIFYISYEYWGQGTQVTVSS | low polyreactivity
10 | QDQLVESGGGLVQAGGSLRLSCAASGRTFYIYAMGWYRQATGKERELVAAISSYTSTKYADSVKGRFTISRDNAKNTVYLQMICLKPEDTAVYYCASGYPVRYRGYLNWSYYAYDYWGQGTQVTVSS | low polyreactivity
11 | QDQLVESGGGLVQAGGSLRLSCAASGRTFYLYAMGWYRQAPGKERELVARISWGGGRTYYADSVKGRFTISRDNAKNTVYLQMNSLKPEDTAVYYCNAQSPRGFTTTRQVYPLNGYWGQGTQVTVSS | high polyreactivity
12 | QDQLVESGGGLVQAGGSLRLSCAASGRTFYRYAMGWYRQAPGKERELVASITRGTSTNYADSVKGRFTISRDNAKNTVYLQMNSLKPEDTAVYYCNRRIFGGQRMYYWGQGTQVTVSS | high polyreactivity
13 | QDQLVESGGGLVQAGGSLRLSCAASGRTIFRNAMGWYRQAPGKERELVAAITWSGGSTYYADSVKGRFTISRDNAKNTVYLQMNSLKPEDTAVYYCNRKRYGSDYEYWGQGTQVTVSS | low polyreactivity
14 | QDQLVESGGGLVQAGGSLRLSCAASGRTLTRYTMGWYRQAPGKERELVATISRSGGNTHYADSVKGRFTISRDTAKNTVYLQMNSLIPEDTAVYYCNAVRYAIYGYDYWGQGTQVTVSS | high polyreactivity
15 | QDQLVESGGGLVQAGGSLRLSCAASGSIFADYVMGWYRQAPGKERELVAAITRRGRTYYADSVKGRFTISRDNAKNNVYLQMNSLKPEDTAVYYCAKVAYGKIDSWGQGTQVTVSS | low polyreactivity
16 | QDQLVESGGGLVQAGGSLRLSCAASGSIFDRNAMGWYRQAPGKERELVAAITSRGGRTYYADSVKGRFTISRDNAKNTVYLQMNSLKPEDTAVYYCNAVYSQSGYFYRFDYWGQGTQVTVSS | high polyreactivity
17 | QDQLVESGGGLVQAGGSLRLSCAASGSIFDVNAMGWYRQAPGKERELVAAISDSGGSTYYADSVKGRFTISRDNAKNTVYLQMNSLKPEDTAVYYCNADWSWYNYYDFDYWGQGTQVTVSS | low polyreactivity
18 | QDQLVESGGGLVQAGGSLRLSCAASGSIFGRYAMGWYRQAPGKERELVANITSGDSTNYADSVKGRFTISRDNAKNTVYLQMNSLKPEDTAVYYCAADTIYFYYYRHWYSKYYYWGQGTQVTVSS | high polyreactivity
19 | QDQLVESGGGLVQAGGSLRLSCAASGSIFGWYAMGWYRQAPGKERELVAAITWSGGSTYYADSVKGRFTISRDNAKNTVYLQMNSRKPEDTAVYYCAATYYGYVGRYDYWGQGTQVTVSS | high polyreactivity
20 | QDQLVESGGGLVQAGGSLRLSCAASGSIFNVNTMGWYRQAPGKERGLVAAISYSGGSTYYADSVKGRFTISRDNAKNTVYLQMNSLKPEETAVYYCNVSPTTSGDGGGYDSWGQGTQVTVSS | low polyreactivity
21 | QDQLVESGGGLVQAGGSLRLSCAASGSIFSVYVMGWYRQAPGKERELVATISSGGGTYYADSVKGRFTISRDNAKNTVYLQMNSLKPEDTAVYYCNADWDDWKGDYWGQGTQVTVSS | low polyreactivity
22 | QDQLVESGGGLVQAGGSLRLSCAASGSIFSYYAMGWYRQAPGKERELVAAIRRGGSTYYADSVKGRFTISRDNEKNSVYLQMNSLKPEDNAVYYCAASLGWRFYYWGQGTQVTVSS | high polyreactivity

Row | Sequence | polyreactivity (PSR sort gate)
23 | QDQLVESGGGLVQAGGSLRLSCAASGSIFTRYTMGWYRQAPGKERELVATISSRGDGTYYADSVKGRFTISRDNAKNTVYLQMNSLKPEDTAVYYCAARYRRVHSGYGYWGQGTQVTVSS | high polyreactivity
24 | QDQLVESGGGLVQAGGSLRLSCAASGSIFVGYAMGWYRQAPGKETELVAAISTRGGSTYYADSVKGRFTISRDNAKNTVYLQMNSVKPEDTAVYYCAADYLDSTYGYVYGWDDYWGQGTQVTVSS | low polyreactivity
25 | QDQLVESGGGLVQAGGSLRLSCAASGSIFYQNAMGWYRQAPGKERELVAAISIGGGSTYYADSVKGRFTISRDNAKNTVYLQMNSLKPEDTAVYYCATRRSVIYSYVPFDYWGQGTQVTVSS | low polyreactivity
26 | QDQLVESGGGLVQAGGSLRLSCAASGSIIFFYVMGWYRQAPGKERELVAAITYSGGSTFYADSVKGRFTISRDNAKNSVYLQMNSLKPEDTAVNYCAAEYGQWTPLDPYNHWGQGTQVNVSS | low polyreactivity
27 | QDQLVESGGGLVQAGGSLRLSCAASGSNFLKYTMGWYRQAPGKERELVAAITSGGTTNYADSVKGRFTISRDNAKNTVYLQMNSLKPEDTAVYYCARDSYQLGLIRDPLEYDYWGQGTQVTVSS | low polyreactivity
28 | QDQLVESGGGLVQAGGSLRLSCAASGSSFGYYAMGWYRQAPGKERELVASISWRGVSTYYADSVKGRFTISRDNAKNTVYIQMNSLKPEDTAVYYCATVYRWSFDYWGQGTQVTVSS | low polyreactivity
29 | QDQLVESGGGLVQAGGSLRLSCAASGSTFDSYDMGWYRQAPGKERELVAAISGGGGTYYADSVKGRFTISRDNAKNTVYLQMNSLKPEDTAVYYCAARTNGWPGMGYWGQGTQVTVSS | high polyreactivity
30 | QDQLVESGGGLVQAGGSLRLSCAASGSTFGVNAMGWYRQAPGKERELVAIITSTTYSDSVKGRFTISRDNAKNTVYLQMNSLKPEDTAVYYSAADSLLVLFDYWGQGTQVTVSS | low polyreactivity
31 | QDQLVESGGGLVQAGGSLRLSCAASGSTFKVYAMGWYRQAPGKERELVAAISASDCSTYYADSVKGRFTISRDNAKNTVYLQMNILKAEDTAVYYCNAAYPEWYAYDYWGQGTQVTVSS | low polyreactivity
32 | QDQLVESGGGLVQAGGSLRLSCAASGSTFNNNALGWYRQAPGKERELVAAISYTGGSTYYADSVKGRFTISRDNAKNSVYLHMNSLKPEDTAVYYCARRQARKFYYWGQGTQVTVSS | high polyreactivity
33 | QDQLVESGGGLVQAGGSLRLSCAASGSTFPDYAMGRYRQAPGKERELFAAISSGGSTNYADSVKGRFTISRDNAKNTVYLQMNSLKPEDTAVYYCAADVGAIYDKAVNGYWGQGTQVTVSS | low polyreactivity
34 | QDQLVESGGGLVQAGGSLRLSCAASGSTFRHNAMGWYRQAPGKERELVATIRTSGGTTYYADSVKGRFTISRDNAKNTVYLHMNSLKPEDTAVYYCAAVSYLFLYQGYPIAYPMYYWGQGTQVTLSS | low polyreactivity
35 | QDQLVESGGGLVQAGGSLRLSCAASGSTFRPYAMGWSRQAPGKERELVAAITTGGSTNYADSVKGRFTISRDNAKNTVYLQMNSLKPEDTAVYYCNADYDVLNWGYYDWGYDYWGHGTQVTVSS | low polyreactivity
36 | QDQLVESGGGLVQAGGSLRLSCAASGSTFSYNMGWYRQAPGKERELVAAISGSGGSTYADSVKGRFTISRDNAKNTVYLQMNSLKPEDTAVYYCATVRYWVHEYGYWGQGTQVTVSS | high polyreactivity
37 | QDQLVESGGGLVQAGGSLRLSCAASGSTFVSNAMVWYRQAPGKERELVAAISSSGGRTSYADSVKGRFTISRDNAKNTVYLQMNSLKPEDTAVYYCAARFKSVDYVQYYYWGQGTQVTVSS | low polyreactivity
38 | QDQLVESGGGLVQAGGSLRLSCAASGSTIPISVRGWYRQAPGKERELVAAITYSGGSTYYADSVKGRFTISRDNAKNTVYLQMNSLKPEDTAVYYCAAGVYRWHYLYKYTQRRVEYWGQGTQVTVSS | high polyreactivity
39 | QDQLVESGGGLVQAGGSLRLSCAASGSTLYAYAMGWYRQAPGKERELVAASRTGGSTYYADSLKGRFTISRDNAKNTVYLQMNSLKPEDTAVYYCAALYYHEYDYWGQGTQVTVSS | low polyreactivity
40 | QDQLVESGGGLVQAGGSLRLSCAASGSTMRWYAMGWYRQAHGKERELVARISWTTGSTYYADSVKGRFTISRDNAKNTVYLQMNSLKPEDTAVYYCAVASGQSFYWGQGTQVTVSS | high polyreactivity
41 | QDQLVESGGGLVQAGGSLRLSCAASGTFRRYAMGWYRKAPGKERELVAAISSGGGSTYYADSVKGRFTISRDNAKNTVYLQMNSLKPEDTAVYDCAAANSYTFRYGSWGQGTQVTVSS | high polyreactivity
42 | QDQLVESGGGLVQAGGSLRLSCAASGTTFQYNAMGWYRQAPGKERELVAAISGSGGSTYYADSVKGRFTISRDNAKNTVYLEMNSLKPEDTAVYYCARVGYRHGYYNYCGQGTQVTVSS | high polyreactivity
43 | QDQLVESGGGLVQAGGSLRLSCAASGTTFYRYAMGWYRQAPGKERELVAAISSSGGYTYYADSVKGRFTISRDIAKNTVYLQMNSLKPEDTAVYYCNAAYRVRRFDYWGQGTQVTVSS | low polyreactivity
